Data published in patent US20230250176A1 (DRAGONFLY THERAPEUTICS, published 2023).

T1: human NKG2D on cells (human, UniProt P26718 1-216)
T1 construct: whole, on cells; also called NKG2D on KHYG-1 parental cells; NKG2D on CD8+ T cells and NK cells
T1 sequence (looked up): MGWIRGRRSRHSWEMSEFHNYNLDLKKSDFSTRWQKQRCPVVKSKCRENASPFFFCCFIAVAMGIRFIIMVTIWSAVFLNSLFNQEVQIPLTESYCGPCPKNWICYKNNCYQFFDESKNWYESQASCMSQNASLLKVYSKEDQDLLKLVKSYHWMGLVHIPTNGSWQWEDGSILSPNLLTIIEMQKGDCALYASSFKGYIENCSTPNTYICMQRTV


Key:
human NKG2D on cells = molecular target: T1, human NKG2D on cells; experiment: flow cytometry, AF647-conjugated test article on KHYG-1 parental cells (NKG2D+, CD16a-)
[1] = molecular target: purified recombinant mouse EGFR (mouse, UniProt Q01279 25-647, limits assumed); experiment: SPR (Biacore 8K), 37 C
Procedure: (§1) Measurements were performed at physiological temperature of 37° C. using a Biacore8K SPR system.

[2] = molecular target: purified recombinant rat EGFR (rat, UniProt A0ABK0LZB0 35-651); experiment: SPR (Biacore 8K), 37 C
Procedure: as §1

[3] = molecular target: T2, mouse Tyrp1 on B16F10 and CT26-Tyrp1 cells (mouse, UniProt P07147 25-537); experiment: flow cytometry on CT26-Tyrp1 cells, anti-mouse IgG-Fc secondary, MFI minus background, 4-parameter fit
T2 construct: whole, on cells

[4] = molecular target: T2, mouse Tyrp1 on B16F10 and CT26-Tyrp1 …; experiment: flow cytometry on B16F10 cells, anti-mouse IgG-Fc secondary, MFI minus background, 4-parameter fit

binding result (human NKG2D on cells) | binding result [1] | binding result [2] | EC50 [3] | EC50 [4] | Binder
no binding (tested: 800 nM) | no binding | no binding | – | – | panitumumab (antibody, IgG2, V domains shown) VH: QVQLQESGPGLVKPSETLSLTCTVSGGSVSSGDYYWTWIRQSPGKGLEWIGHIYYSGNTNYNPSLKSRLTISIDTSKTQFSLKLSSVTAADTAIYYCVRDRVTGAFDIWGQGTMVTVSS VL: DIQMTQSPSSLSASVGDRVTITCQASQDISNYLNWYQQKPGKAPKLLIYDASNLETGVPSRFSGSGSGTDFTFTISSLQPEDIATYFCQHFDHLPLAFGGGTKVEIK
– | – | – | 14.6 nM | 11 nM | TA99 (antibody, V domains shown) VH: EVQLQQSGAELVRPGALVKLSCKTSGFNIKDYFLHWVRQRPDQGLEWIGWINPDNGNTVYDPKFQGTASLTADTSSNTVYLQLSGLTSEDTAVYFCTRRDYTYEKAALDYWGQGASVIVSS VL: DIQMSQSPASLSASVGETVTITCRASGNIYNYLAWYQQKQGKSPHLLVYDAKTLADGVPSRFSGSGSGTQYSLKISSLQTEDSGNYYCQHFWSLPFTFGSGTKLEIK
